Measurements: the RNAGym collection of RNA variant scans (doi:10.1073/pnas.2313332121)
This sample holds only a part of the variants without activity.

B1: TPR 5TU (parent)
chain: GGAUCUUCUCGAUCUAACAAAAAAGACAAAUCUGCCACAAAGCUUGAGAGCAUCUUCGGAUGCAGAGGCGGCAGCCUUCGGUGGCGCGAUAGCGCCAACGUUCUCAACUAUGACACGCAAAACGCGUGCUCCGUUGAAUGGAGUUUAUCAUG

Variants of: B1
Experiment: polymerase ribozyme fitness, log enrichment relative to wild type (log ratio); higher = more active; in vitro selection for triplet polymerase activity
Method in brief: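 Streptavidin-bead capture of gel-excised extended constructs, followed by RT-PCR, closed a single triplicate in vitro selection round. That round began by annealing PCR-built, transcribed mutant libraries of each subunit of a heterodimeric triplet polymerase ribozyme with a biotinylated primer, the partner subunit and triplets, then incubating them frozen at −7 °C. After Illumina sequencing of inputs and outputs, genotypes needed ≥10 input reads and ≥1 read per output. Fitness is the base-2 logarithm of genotype enrichment over wild-type enrichment, using inverse-variance-weighted replicate averages.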

Variant	polymerase ribozyme fitness (log ratio)
U44A A52C C54A G92A G141C	≤ -4.2
C10A A23C G50A C75G C95U C96A C123G	≤ -4.2
A21G A39U G83A U90G G92C C108G	≤ -4.2
U33G G59A G94U	-3.39
A22G U55G C57U G84U C85A	-0.696
C18A A19U C76A C85U C99U U104G A110G G143C	≤ -4.2
A29U G94U U109A	≤ -4.2
U53A U144C U145G	-1.92
G80A C85A A142C	-2.14
A89U C95G A122G	-1.39
A22U A97G	0.0508
G25U A26C A49G U61A C76U U104A C114U A119C	≤ -4.2
U13G G94C C114G G143A	≤ -4.2
U82C G94C C108A A110G A113G G140U	≤ -4.2
A17U C54A G92U C149U	-2.92
A40C C96U U144G U151G	-3.73
C18G C114G A122G	-3.64
U9G C35A A39G C87A C125U G143A U151A	-3.88
A47C A66U C103G	≤ -4.2
C32G G42C A49U G94C C95A G126A	-3.97
U6C U31G G50C C69G G94C A119U U151A	≤ -4.2

Variant	polymerase ribozyme fitness (log ratio)
A17G G133U	-3.47
C43G G94A G133U A137U	-4.11
U45G A115G	-1.98
A40U U61G C69U	-1.67
U44G C75G G88C	≤ -4.2
C5G A23C C72U G88U C132G U135G U148G	-3.99
G58A C93U	-2
C51U C95A A98U C116G	0.822
A20C A49U A60C	-3.14
A12G G48C U56A G70A G83U	≤ -4.2
C69A G143U	-3.34
A20U U44G G46A G59C C96A A115C	≤ -4.2
C93A G124A	-2.59
A12U G42C U61A A106U C132U	≤ -4.2
A40G A52G A91C A119U G128A	≤ -4.2
U13C A120G U130A	-3.95
A30G A121G	-3.36
U15A A26C	-1.44
A12U C38G G59U	-0.492
C18G U56A A73U G83C	-3.86
C18A A20U C69A G88U C93G C99G U111A G124A G140C	≤ -4.2

Variant	polymerase ribozyme fitness (log ratio)
U82C G94A	-1.35
U33A U56A C75G G81U G83A U127A	≤ -4.2
A12C G58C G94C	-1.43
A19G A22G U31G A41U U44A A60C G81A G83C G84A U146A	≤ -4.2
A40C C95U	-0.646
A12C A19C A122G U146C	-1.62
G11C C14G A26U C105G U134G	≤ -4.2
U82A A120C U130C G143U	-2.44
A21U A52G C76A G81C C87G C114U A121C U146A	≤ -4.2
G48C C85A A142U	≤ -4.2
G48A C108U	≤ -4.2
A24U C32G U135G G143A	-4.12
A20U C51U G83A C93G C96U C103A C105A	≤ -4.2
C93U C99A	-3.72
C72G C85G	≤ -4.2
A110G	-2.42
U55A C57A	0.142
A73U A150G	-2.68
U56C U82G	-0.541
C57U A66C	-3.93
A17G G42C C43A C85A G143U	≤ -4.2

Variant	polymerase ribozyme fitness (log ratio)
A21U A28C U53A G88C	≤ -4.2
U13A U33A A52U A89G	≤ -4.2
A16C U44G A47G C51A A60C U77A	≤ -4.2
U4G A16C A28U C38U U55A C75G U111C A122U A142C	≤ -4.2
C95U C96U G124U G136C	-3.61
A30U A91U U104G	≤ -4.2
A73G C76U C93A C99A U145A	≤ -4.2
G92A G136C	-3.83
G48A G59C C63U G86C	-3.98
C27U U55A G58C C87U U111C A142U	-4.19
C14U A52C U56A A97U A98U	-4.07
A16U A37U C76G U82G A89G A91G G143U	≤ -4.2
C5G U55A C93U C118A	-3.5
A16C U55A A142G A150G	-3.06
A37U G88U G92C A122G G133U G143A A150U	-4.06
C5G G48C G62C A97U G141U	≤ -4.2
C85U C95G C108U	≤ -4.2
A89G C99G C116A	-1.92
A17G G50C	-2.81
G25U U148A	≤ -4.2
